From patent US20180335433A1, “COMPOSITIONS TARGETING PKC-THETA AND USES AND METHODS OF TREATING PKC-THETA PATHOLOGIES, ADVERSE IMMUNE RESPONSES AND DISEASES” (La Jolla Institute for Allergy and Immunology, priority 2011, published 2018)

Test system: B6 CD4+ T cells, Th17 differentiation
Assay: In vitro Th17 differentiation of retrovirally transduced CD4+ T cells
Assay type: cell-based, mouse
Settings: ectopic expression, Th17 differentiation conditions
Experimental: (FIG. 6A) OT-II CD4^+ T cells were infected with retrovirus expressing Myc-tagged V3 domain, V3 mutated at P330/1/4/6A (V3-4PA), or PR motif-deleted V3 (V3-ΔPR). Infected cells (green) were harvested, stimulated, and fixed. Conjugates were stained with anti-Myc plus a secondary Alexa 555-coupled antibody (orange), and anti-PKCθ plus a secondary Alexa 647-coupled antibody (red). Cells were analyzed as in FIG. 1A. (FIG. 6B) Quantitative analysis of the results shown in (FIG. 6A) from 30-50 T-APC conjugates. ** p<0.05. (FIG. 6C) MCC-specific T hybridoma cells were cotransfected with indicated vector, together with RE/AP-Luc and β-Gal reporter plasmids. Cells were stimulated and analyzed as in FIG. 1C. […] Cytokine-producing cells were analyzed by intracellular staining 8 h after restimulation. […] Normalized luciferase activity was determined in triplicates. […]
Investigators have reported that the Th2 and Th17 immune responses are compromised in PKCθ^−/− mice, whereas the Th1 response remains relatively intact (Marsland, B. J. et al. J Exp Med 200, 181-189 (2004); Salek-Ardakani, S. et al. J Immunol 173, 6440-6447 (2004); Salek-Ardakani, S., et al. J Immunol 175, 7635-7641 (2005)). Therefore, ectopic expression of V3 was analyzed for inhibition of Th differentiation. […]

B1: V3 domain: amino acid 282-379 of human PKCθ with N-terminal Myc tag, expressed from pMIG retroviral vector (protein)
chain: GINQKLMAEALAMIESTQQARCLRDTEQIFREGPVEIGLPCSIKNEARPPCLPTPGKREPQGISWESPLDEVDKMCHLPEPELNKERPSLQIKLKIED
modifications: left off: small tags and cut ends
notes: amino acid 282-379 of human PKCθ with N-terminal Myc tag, expressed from pMIG retroviral vector
inhibition of Th17 differentiation: ~75%
